# Source: a protein production outcome set (Wang et al. 2014)
# Experiment: label from the status in PepcDB records
row,Sequence,protein production
1,MELIVPILAAAYLAVLLVKTAAALWVVRGERLRPARSAVATPADVAILQPILGGDAHLQEVLAANVQALPQAQFIWLLDTDDGPGNAAADAVVAQYPQLRIARMLVPPAPPGINPKAWKLDYALPHIDAPVSLILDDDAHLGDRALSQLLLDLAHADVVTALPYYRDSATLAGRLLAQFVNNNAALTYLGWLPFAAPLTINGMCYAARTEQLRRWGGFTALLEQLTDDLAFATLVRDRGGRLWQSTAPVAMRTDMPDLRGYVRQMHRWMLFASILLGRQRLRVRSAIGVLQGLPPVLLLAMLVCACVQHTWPAALCVLIVLLARALLLCGVQWRVTGAVRHRLLLSLCAECLQPLHLLHAALVRTIRWRTRRYRVLPDGCFRAE,failed
2,MIIHIRRTDEKQRWLFFSTLLNATLAVAKLGWGWMMGSTLVVADGIHSISDVFGALLIFLALFFAAHKSERFPYGLHKLEDMAAVLGGLGILYAGYEIIHSVFFEAGIKTPEAIWTTIGFILAIVFIQYTFYFFELKAAQRLGSPGVKADAVNWLGDIGAGMIVVIGLVAHHYKVPYAQEVSVIIIVLMILKGAYDVLKEGLLSLLDAADIEMNDTIRNIVMAEPDITNIKRLNVRKSGSVYFADIELSIAEVATAKAHKSIDEVVNRLHEEINTLEAVTIHYEPDHPPYRTVVRLLDKDKKHLSIHFGQTAWLEITHIEADNKQISKEFVKNSAVIAPKGKAFRLVAYLLSIHTDTIVMGNAELDENILTLFEALNIEVKKEKNDET,failed
3,MKKVIAGLAAASVVGVAVPGMDSAQAQVSNEALKEINGQTQTQTTVTETKTVETKSDLKYTVTADVLNVRSGAGTGHSVISKVKQGQVLQVIGQENGWFKVTVNGQTGYVSGDFVTTGGKTGTTVQQGTGTYTVNVSSLNVRTGPSTSHTVLGSVNKGKTVQVVSEVQDWFKINFNGGTGYVSKDFVTKGGSAVSNQTQQPTTNNNTTTVQTGGSYVVNTGALKVRTGPATYNAVIGGVTNGTVLNVTGAENGWYKINHNGRTGYVSADFVKFVKGGVNNVTNNVQQPVKDVQKPTTGGNTSSIAGFARSLNGSPYRTAGTTPAGFDCSGFIHYVLNQTGHKGARQTVAGYWSSKTKTSNPQPGDLVYFQNTYKSGPSHMGVYLGNGQFISAETDATGVRISSVSNSYWSKHLLGYTKAYLEHHHHHH,failed
4,MRQSTLHTRLSTGPGGSMRSSIEIFNIRTRKMRVVWQTPELFEAPNWSPDGKYLLLNSEGLLYRLSLAGDPSPEKVDTGFATICNNDHGISPDGALYAISDKVEFGKSAIYLLPSTGGTPRLMTKNLPSYWHGWSPDGKSFTYCGIRDQVFDIYSMDIDSGVETRLTHGEGRNDGPDYSPDGRWIYFNSSRTGQMQIWRVRVDGSSVERITDSAYGDWFPHPSPSGDKVVFVSYDADVFDHPRDLDVRVQLMDMDGGNVETLFDLFGGQGTMNSPNWSPDGDEFAYVRYFPVE,not failed
5,MSELNKEMTLLPPPELVQYVGGDFKKVGKEFLKHFIQIGALKSNEKVLDVGCGVGRMAVPLMNYLNDDGAYYGFDLFKDGITWCQNNISTMRNNFHFEHVDIYNQFYNPEGKEDASQYRFPYEDGTFDFIFLTSVFTHLLPKELEHYVSEIVRVLKKDGRCFITFFLINPESSYYLNAGQSTLGFYHRIENCYVVNKDIPNFAVAYPETDICNLLNKYGLEIINKPHYGLWCGRHEYTSYQDIVLTKKSFLEHHHHHH,not failed
6,MFKKRLNKDKINDCYTWEEELPDGSYDMGFHGNLNHMEKGKSGYVTHKQLDKKLEVFKQDLLVELSEKFVTKEEFRAQGKQIKELQIEQKAQGKTLQLILEALQGINKRLDKLESKLEHHHHHH,not failed
7,SEAGGLPLELWRMILAYLHLPDLGRCSLVCRAWYELILSLDSTRWRQLCLGCTECRHPNWPNQPDVEPESWREAFKQHYLASKTWTKNALDLESSICFSLFRRRRERRTLSVGPGREFDSLGSALAMASLYDRIVLFPGVYEEQGEIILKVPVEIVGQGKLGEVALLASIDQHCSTTRLCNLVFTPAWFSPIMYKTTSGHVQFDNCNFENGHIQVHGPGTCQVKFCTFKNTHIFLHNVPLCVLENCEFVGSENNSVTVEGHPSADKNWAYKYLLGLIKSSPTFLPTEDSD,not failed
